Laboratory results taken from patent US20260055148A1 (USTAV ORGANICKE CHEMIE A BIOCHEMIE AV CR V V I, published 2026).

Assays:
His-C3d N1134A (human) [1] = target: His-C3d N1134A (human) (UniProt P01024); assay: SPR BIAcore T200, biotinylated ISG65-Avi immobilised, C3d N1134A as analyte
His-C3d N1134A (human) [2] = target: His-C3d N1134A (human) (UniProt P01024); assay: SPR BIAcore T200, biotinylated ISG65-Avi immobilised, C3d N1134A as analyte; koff1
His-C3d N1134A (human) [3] = target: His-C3d N1134A (human) (UniProt P01024); assay: SPR BIAcore T200, biotinylated ISG65-Avi immobilised, C3d N1134A as analyte; kon1
His-C3d N1134A (human) [4] = target: His-C3d N1134A (human) (UniProt P01024); assay: SPR, relative to wild type C3d
[5] = target: T1, C3b (human complement C3b) (human, UniProt P01024 23-667; P01024 749-1663); assay: cell-based or functional assay
[6] = target: T2, His-C3d-Avi, biotinylated (human complement C3d with N-terminal His-tag and C-terminal Avi-tag) (human, UniProt P01024 996-1303, site-specific biotinylation of the C-terminal Avi-tag); assay: SPR BIAcore T200, biotinylated C3d-Avi immobilised, ISG65 mutant as analyte
T2 construct: domain: C3d; SPR ligand for the ISG65 mutants; not shown: N-terminal His-tag (pET15b); C-terminal Avi-tag

[7] = target: T2, His-C3d-Avi, biotinylated (human …); assay: SPR, relative to wild type ISG65
[8] = target: T2, His-C3d-Avi, biotinylated (human …); assay: SPR BIAcore T200, biotinylated C3d-Avi immobilised, ISG65 mutant as analyte; koff1
[9] = target: T2, His-C3d-Avi, biotinylated (human …); assay: SPR BIAcore T200, biotinylated C3d-Avi immobilised, ISG65 mutant as analyte; kon1
[10] = target: T1, C3b (human complement C3b); assay: SPR BIAcore T200, biotinylated ISG65-Avi immobilised, C3b as analyte
[11] = target: T3, C3 (H2O) (human complement C3 with hydrolysed thioester) (human, UniProt P01024 23-667; P01024 672-1663); assay: SPR BIAcore T200, biotinylated ISG65-Avi immobilised, C3 (H2O) as analyte
T3 construct: mature

[12] = target: T1, C3b (human complement C3b); assay: SPR BIAcore T200, biotinylated ISG65-Avi immobilised, C3b as analyte; koff1
[13] = target: T4, His-C3d (recombinant human complement C3d, wild type) (human, UniProt P01024 996-1303); assay: SPR BIAcore T200, biotinylated ISG65-Avi immobilised, C3d Wt as analyte; kon1
T4 construct: domain: C3d; Produced in E. coli; also called C3d Wt; TED; not shown: His-tag

[14] = target: T3, C3 (H2O) (human complement C3 with …); assay: SPR BIAcore T200, biotinylated ISG65-Avi immobilised, C3 (H2O) as analyte; kon1
His-C3d L1109A [15] = target: T5, His-C3d L1109A (human, UniProt P01024 996-1303); assay: SPR BIAcore T200, biotinylated ISG65-Avi immobilised, C3d L1109A as analyte
T5 construct: domain: C3d; not shown: His-tag

[16] = target: T6, Native human complement C3 (human, UniProt P01024 23-667; P01024 672-1663); assay: SPR BIAcore T200, biotinylated ISG65-Avi immobilised, native C3 as analyte; kon1; kon1, first step of the two-step fit
T6 construct: mature; also called native C3; human C3

[17] = target: T4, His-C3d (recombinant human complement …); assay: SPR BIAcore T200, biotinylated ISG65-Avi immobilised, C3d Wt as analyte
[18] = target: T4, His-C3d (recombinant human complement …); assay: SPR, relative to wild type C3d
His-C3d L1109A [19] = target: T5, His-C3d L1109A; assay: SPR, relative to wild type C3d
His-C3d E1110A = target: T7, His-C3d E1110A (human, UniProt P01024 996-1303); assay: SPR, relative to wild type C3d
T7 construct: domain: C3d; not shown: His-tag

[20] = target: T8, C3a (ANA domain of human complement C3, released) (human, UniProt P01024 672-748); assay: SPR BIAcore T200, biotinylated ISG65-Avi immobilised, C3a as analyte
T8 construct: domain: C3a

[21] = target: T3, C3 (H2O) (human complement C3 with …); assay: SPR BIAcore T200, biotinylated ISG65-Avi immobilised, C3 (H2O) as analyte; koff1
[22] = target: T6, Native human complement C3; assay: SPR BIAcore T200, biotinylated ISG65-Avi immobilised, native C3 as analyte; koff1; koff1, first step of the two-step fit
[23] = target: T9, C3c (fragment of human complement C3) (human, UniProt P01024 23-667; P01024 749-954; P01024 1321-1663); assay: SPR, biotinylated ISG65 immobilised, C3c as analyte
T9 construct: domain: C3c

[24] = target: T1, C3b (human complement C3b); assay: SPR BIAcore T200, biotinylated ISG65-Avi immobilised, C3b as analyte; kon1
[25] = target: T6, Native human complement C3; assay: SPR BIAcore T200, biotinylated ISG65-Avi immobilised, native C3 as analyte; overall KD of a two-step fit (kon1, kon2, koff1, koff2)
[26] = target: T4, His-C3d (recombinant human complement …); assay: SPR BIAcore T200, biotinylated ISG65-Avi immobilised, C3d Wt as analyte; koff1
[27] = target: T2, His-C3d-Avi, biotinylated (human …); assay: SPR BIAcore T200, biotinylated C3d-Avi immobilised, ISG65 mutant as analyte; koff1; koff1, first step of the two-step fit
[28] = target: T2, His-C3d-Avi, biotinylated (human …); assay: SPR BIAcore T200, biotinylated C3d-Avi immobilised, ISG65 mutant as analyte; overall KD of a two-step fit (kon1, kon2, koff1, koff2)
[29] = target: T2, His-C3d-Avi, biotinylated (human …); assay: SPR BIAcore T200, biotinylated C3d-Avi immobilised, ISG65 mutant as analyte; kon1; kon1, first step of the two-step fit

T1 sequence (P01024 23-667 limits assumed, chain 1 of 2): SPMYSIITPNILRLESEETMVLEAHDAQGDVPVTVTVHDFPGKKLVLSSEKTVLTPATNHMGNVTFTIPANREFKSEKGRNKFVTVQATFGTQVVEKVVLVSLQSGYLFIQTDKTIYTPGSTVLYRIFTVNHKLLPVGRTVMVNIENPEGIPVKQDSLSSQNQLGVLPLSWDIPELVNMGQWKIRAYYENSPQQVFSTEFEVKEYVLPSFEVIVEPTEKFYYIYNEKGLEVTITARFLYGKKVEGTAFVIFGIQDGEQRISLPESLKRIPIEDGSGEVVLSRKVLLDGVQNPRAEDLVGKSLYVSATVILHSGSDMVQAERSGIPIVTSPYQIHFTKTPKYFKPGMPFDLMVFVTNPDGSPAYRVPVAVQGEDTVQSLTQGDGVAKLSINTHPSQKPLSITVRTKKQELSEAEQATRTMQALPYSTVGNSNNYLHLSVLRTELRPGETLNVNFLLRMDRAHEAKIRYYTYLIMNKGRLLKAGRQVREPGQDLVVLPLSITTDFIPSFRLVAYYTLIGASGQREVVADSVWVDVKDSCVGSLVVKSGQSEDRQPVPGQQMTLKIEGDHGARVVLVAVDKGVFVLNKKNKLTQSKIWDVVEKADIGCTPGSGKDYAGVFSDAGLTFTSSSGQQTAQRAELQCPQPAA
T1 sequence (P01024 749-1663 limits assumed, chain 2 of 2): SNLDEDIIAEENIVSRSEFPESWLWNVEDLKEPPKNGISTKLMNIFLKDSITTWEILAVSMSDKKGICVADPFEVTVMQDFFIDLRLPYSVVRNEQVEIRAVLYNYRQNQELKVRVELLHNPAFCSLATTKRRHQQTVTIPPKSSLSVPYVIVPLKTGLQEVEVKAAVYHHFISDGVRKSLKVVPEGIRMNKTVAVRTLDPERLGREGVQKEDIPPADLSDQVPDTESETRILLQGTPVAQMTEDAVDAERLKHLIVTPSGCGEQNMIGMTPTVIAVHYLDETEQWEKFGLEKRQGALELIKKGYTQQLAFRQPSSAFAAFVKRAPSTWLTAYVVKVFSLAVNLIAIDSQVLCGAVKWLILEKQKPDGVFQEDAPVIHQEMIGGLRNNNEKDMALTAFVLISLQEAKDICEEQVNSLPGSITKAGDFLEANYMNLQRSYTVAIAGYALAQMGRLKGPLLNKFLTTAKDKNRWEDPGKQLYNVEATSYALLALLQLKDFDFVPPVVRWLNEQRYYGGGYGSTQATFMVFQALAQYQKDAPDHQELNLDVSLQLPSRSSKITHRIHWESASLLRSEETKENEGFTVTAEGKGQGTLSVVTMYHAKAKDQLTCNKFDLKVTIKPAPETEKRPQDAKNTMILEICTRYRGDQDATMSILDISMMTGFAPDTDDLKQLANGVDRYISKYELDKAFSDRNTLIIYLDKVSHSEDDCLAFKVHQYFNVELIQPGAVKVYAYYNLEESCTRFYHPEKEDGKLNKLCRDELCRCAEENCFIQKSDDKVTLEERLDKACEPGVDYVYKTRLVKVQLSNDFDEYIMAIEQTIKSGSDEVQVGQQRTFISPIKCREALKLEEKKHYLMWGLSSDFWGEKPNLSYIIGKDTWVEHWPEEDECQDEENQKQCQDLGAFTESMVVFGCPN
T3 sequence (P01024 23-667 limits assumed, chain 1 of 2): as the sequence (P01024 23-667 limits assumed, chain 1 of 2) above
T3 sequence (P01024 672-1663 limits assumed, chain 2 of 2): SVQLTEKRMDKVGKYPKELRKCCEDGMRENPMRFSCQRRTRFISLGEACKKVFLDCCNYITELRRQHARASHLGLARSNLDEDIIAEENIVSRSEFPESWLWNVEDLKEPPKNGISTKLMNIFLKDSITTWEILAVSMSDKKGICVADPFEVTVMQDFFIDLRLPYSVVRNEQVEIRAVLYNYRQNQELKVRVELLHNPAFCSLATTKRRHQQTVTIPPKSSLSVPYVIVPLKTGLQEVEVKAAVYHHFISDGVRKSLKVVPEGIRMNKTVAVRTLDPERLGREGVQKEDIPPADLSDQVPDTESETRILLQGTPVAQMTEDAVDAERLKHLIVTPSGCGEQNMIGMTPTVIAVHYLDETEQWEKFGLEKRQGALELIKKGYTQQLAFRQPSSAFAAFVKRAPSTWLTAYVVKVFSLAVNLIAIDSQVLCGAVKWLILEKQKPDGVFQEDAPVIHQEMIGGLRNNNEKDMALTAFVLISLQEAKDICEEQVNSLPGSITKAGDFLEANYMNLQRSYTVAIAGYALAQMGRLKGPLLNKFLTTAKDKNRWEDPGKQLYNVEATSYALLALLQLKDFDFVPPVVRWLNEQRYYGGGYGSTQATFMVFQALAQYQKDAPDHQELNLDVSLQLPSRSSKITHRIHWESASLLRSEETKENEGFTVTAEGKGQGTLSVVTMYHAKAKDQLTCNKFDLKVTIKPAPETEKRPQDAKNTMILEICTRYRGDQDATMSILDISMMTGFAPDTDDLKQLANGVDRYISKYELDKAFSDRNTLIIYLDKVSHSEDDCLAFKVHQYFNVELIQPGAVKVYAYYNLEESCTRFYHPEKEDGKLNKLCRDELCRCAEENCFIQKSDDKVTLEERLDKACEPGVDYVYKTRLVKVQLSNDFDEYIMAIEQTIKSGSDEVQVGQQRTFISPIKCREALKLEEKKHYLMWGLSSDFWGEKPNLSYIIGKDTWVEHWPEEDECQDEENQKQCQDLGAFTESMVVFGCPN
T6 sequence (P01024 23-667 limits assumed, chain 1 of 2): as the sequence (P01024 23-667 limits assumed, chain 1 of 2) above
T6 sequence (P01024 672-1663 limits assumed, chain 2 of 2): as the sequence (P01024 672-1663 limits assumed, chain 2 of 2) above
T4 sequence (P01024 996-1303 limits assumed): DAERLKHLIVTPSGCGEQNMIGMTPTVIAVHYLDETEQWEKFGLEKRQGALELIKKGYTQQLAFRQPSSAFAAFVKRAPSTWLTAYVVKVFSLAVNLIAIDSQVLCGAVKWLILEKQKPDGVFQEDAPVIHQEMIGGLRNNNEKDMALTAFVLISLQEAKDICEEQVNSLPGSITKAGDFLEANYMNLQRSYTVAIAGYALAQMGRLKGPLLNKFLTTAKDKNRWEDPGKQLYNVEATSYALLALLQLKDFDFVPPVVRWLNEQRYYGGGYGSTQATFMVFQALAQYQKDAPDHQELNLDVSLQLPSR
T2 sequence (P01024 996-1303 limits assumed): as above
His-C3d N1134A (human), sequence (P01024 996-1303, stated change not applied): as the sequence (P01024 996-1303 limits assumed) above
T5 sequence (P01024 996-1303 L1109A limits assumed): as the sequence (P01024 996-1303 limits assumed) above, with L114A counted along it
T7 sequence (P01024 996-1303 E1110A limits assumed): as the sequence (P01024 996-1303 limits assumed) above, with E115A counted along it
T8 sequence (P01024 672-748 limits assumed): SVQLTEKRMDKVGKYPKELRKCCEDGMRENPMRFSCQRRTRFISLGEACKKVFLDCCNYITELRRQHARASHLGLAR
T9 sequence (P01024 23-667 limits assumed, chain 1 of 3): as the sequence (P01024 23-667 limits assumed, chain 1 of 2) above
T9 sequence (P01024 749-954 limits assumed, chain 2 of 3): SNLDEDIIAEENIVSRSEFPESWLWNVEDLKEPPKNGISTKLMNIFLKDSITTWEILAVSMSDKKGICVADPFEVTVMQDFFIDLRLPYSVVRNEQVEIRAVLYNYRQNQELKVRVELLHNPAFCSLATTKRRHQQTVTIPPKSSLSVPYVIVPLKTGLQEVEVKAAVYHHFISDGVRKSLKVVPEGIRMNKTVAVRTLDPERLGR
T9 sequence (P01024 1321-1663 limits assumed, chain 3 of 3): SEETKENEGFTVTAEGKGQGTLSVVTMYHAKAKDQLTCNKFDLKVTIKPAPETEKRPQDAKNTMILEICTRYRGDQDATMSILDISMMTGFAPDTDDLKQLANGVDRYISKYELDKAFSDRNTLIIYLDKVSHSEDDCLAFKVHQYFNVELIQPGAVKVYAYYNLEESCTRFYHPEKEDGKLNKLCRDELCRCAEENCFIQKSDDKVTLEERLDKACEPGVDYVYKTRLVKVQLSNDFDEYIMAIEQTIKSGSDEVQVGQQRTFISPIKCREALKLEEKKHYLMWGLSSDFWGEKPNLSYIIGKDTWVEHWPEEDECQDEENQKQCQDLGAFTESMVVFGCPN

Q: Which Kd (His-C3d N1134A (human) [1]) does the source give for “His-ISG65 18-363-Avi, biotinylated at the C-terminal Avi-tag (receptor)” here?
A: 28.6 nM

Q: And the koff (His-C3d N1134A (human) [2])?
A: 0.0542 s⁻¹

Q: And the kon (His-C3d N1134A (human) [3])?
A: 1.89e+06 M⁻¹ s⁻¹

Q: What about the ISG65 binding (%) (His-C3d N1134A (human) [4]) of the same molecule?
A: 25%

B1: ISG65 M2 (thermostable mutant of the ISG65 extracellular domain 18-363 with N-terminal His-tag) (receptor)
chain: MGSSHHHHHHSSGLVPRGSHMLLVIGSEDNRVPGDKKLTKEGAAALCKMKHLADKVAKERSQELKDRTQNFAGYIEFELYRIDYWLEKLNGPKGRKDGYAKLSDSDIKKVKEIFEKAKDGITKQLPEAKKAAEEAEKLHQEVKEAAEKARGQDLDDDTAKSTGLYRVLNWYCITKEERHNATPNCDGIQFRKHYLSVNRSAIDCSSTSYEENYDWSANALQVALNSWEDKKPKKLESAGSDKNCNIGQSSESHPCTMTEEWQTHYKETIEKLRELEEAYQRGKKAHDDMLGYANTAYAVNTKVEQEKPLSEVIAAAKEAGKKGAKIIIPAAAPATPTNSTKNDDSAPTEHVDRGIATNETQVEVGID
Q: Which “relative AP50 of human plasma, day 0” value [5] does the source give for B1 here?
A: 15 fold

B2: His-ISG65 18-363 T297A (receptor)
chain: MGSSHHHHHHSSGLVPRGSHMLLVIGSEDNRVPGDKKLTKEGAAALCKMKHLADKVAKERSQELKDRTQNFAGYIEFELYRIDYWLEKLNGPKGRKDGYAKLSDSDIEKVKEIFNKAKDGITKQLPEAKKAGEEAGKLHTEVKKAAENARGQDLDDDTAKSTGLYRVLNWYCITKEERHNATPNCDGIQFRKHYLSVNRSAIDCSSTSYEENYDWSANALQVALNSWEDVKPKKLESAGSDKNCNIGQSSESHPCTMTEEWQTPYKETVEKLRELEDAYQRGKKAHDAMLGYANTAYAVNAKVEQEKPLTEVIAAAKEAGKKGAKIIIPAAAPATPTNSTKNDDSAPTEHVDRGIATNETQVEVGID
notes: also called ISG65 T297A
Q: How did the Kd [6] turn out when B2 was run?
A: 182 nM

Q: What about the koff2 [6] of the same molecule?
A: 0.002 s⁻¹

Q: What about the “C3d binding (%)” value [7] of the same molecule?
A: 15%

Q: And the koff [8]?
A: 0.05 s⁻¹

Q: What about the kon [9] of the same molecule?
A: 171000 M⁻¹ s⁻¹

B3: His-ISG65 18-363-Avi, biotinylated at the C-terminal Avi-tag (receptor)
chain: MGSSHHHHHHSSGLVPRGSHMLLVIGSEDNRVPGDKKLTKEGAAALCKMKHLADKVAKERSQELKDRTQNFAGYIEFELYRIDYWLEKLNGPKGRKDGYAKLSDSDIEKVKEIFNKAKDGITKQLPEAKKAGEEAGKLHTEVKKAAENARGQDLDDDTAKSTGLYRVLNWYCITKEERHNATPNCDGIQFRKHYLSVNRSAIDCSSTSYEENYDWSANALQVALNSWEDVKPKKLESAGSDKNCNIGQSSESHPCTMTEEWQTPYKETVEKLRELEDAYQRGKKAHDAMLGYANTAYAVNTKVEQEKPLTEVIAAAKEAGKKGAKIIIPAAAPATPTNSTKNDDSAPTEHVDRGIATNETQVEVGID
modifications: site-specific biotinylation of the C-terminal Avi-tag
notes: SPR ligand captured on a Series S sensor chip CAP; also called ISG65-Avi; biotinylated ISG65; not shown: C-terminal Avi-tag
Q: Which Kd [10] does the source give for B3 here?
A: 80.9 nM

Q: And the Kd [11]?
A: 18 nM

Q: What about the koff [12] of the same molecule?
A: 0.0212 s⁻¹

Q: And the kon [13]?
A: 5.24e+06 M⁻¹ s⁻¹

Q: And the kon [14]?
A: 942000 M⁻¹ s⁻¹

Q: And the Kd (His-C3d L1109A [15])?
A: 52.9 nM

Q: What about the kon [16] of the same molecule?
A: 81800 M⁻¹ s⁻¹

Q: And the Kd [17]?
A: 7.2 nM

Q: What about the “ISG65 binding (%)” value [18] of the same molecule?
A: 100%

Q: What about the “ISG65 binding (%)” value (His-C3d L1109A [19]) of the same molecule?
A: 45%

Q: What about the “ISG65 binding (%)” value (His-C3d E1110A) of the same molecule?
A: 8%

Q: And the Kd [20]?
A: 18100 nM

Q: What about the koff [21] of the same molecule?
A: 0.017 s⁻¹

Q: What about the koff [22] of the same molecule?
A: 0.0543 s⁻¹

Q: Does B3 bind [23]?
A: no binding (tested: 280 nM)

Q: What about the kon [24] of the same molecule?
A: 262000 M⁻¹ s⁻¹

Q: What about the Kd [25] of the same molecule?
A: 129 nM

Q: What about the koff [26] of the same molecule?
A: 0.0379 s⁻¹

B4: His-ISG65 18-363 W211A (receptor)
chain: MGSSHHHHHHSSGLVPRGSHMLLVIGSEDNRVPGDKKLTKEGAAALCKMKHLADKVAKERSQELKDRTQNFAGYIEFELYRIDYWLEKLNGPKGRKDGYAKLSDSDIEKVKEIFNKAKDGITKQLPEAKKAGEEAGKLHTEVKKAAENARGQDLDDDTAKSTGLYRVLNWYCITKEERHNATPNCDGIQFRKHYLSVNRSAIDCSSTSYEENYDASANALQVALNSWEDVKPKKLESAGSDKNCNIGQSSESHPCTMTEEWQTPYKETVEKLRELEDAYQRGKKAHDAMLGYANTAYAVNTKVEQEKPLTEVIAAAKEAGKKGAKIIIPAAAPATPTNSTKNDDSAPTEHVDRGIATNETQVEVGID
notes: also called ISG65 W211A
Q: How did the koff2 [6] turn out when B4 was run?
A: 0.39 s⁻¹

Q: And the “C3d binding (%)” value [7]?
A: 42%

Q: And the koff [27]?
A: 0.16 s⁻¹

Q: What about the Kd [28] of the same molecule?
A: 66.8 nM

Q: What about the kon [29] of the same molecule?
A: 320000 M⁻¹ s⁻¹

B5: His-ISG65 18-363 Y70A (receptor)
chain: MGSSHHHHHHSSGLVPRGSHMLLVIGSEDNRVPGDKKLTKEGAAALCKMKHLADKVAKERSQELKDRTQNFAGAIEFELYRIDYWLEKLNGPKGRKDGYAKLSDSDIEKVKEIFNKAKDGITKQLPEAKKAGEEAGKLHTEVKKAAENARGQDLDDDTAKSTGLYRVLNWYCITKEERHNATPNCDGIQFRKHYLSVNRSAIDCSSTSYEENYDWSANALQVALNSWEDVKPKKLESAGSDKNCNIGQSSESHPCTMTEEWQTPYKETVEKLRELEDAYQRGKKAHDAMLGYANTAYAVNTKVEQEKPLTEVIAAAKEAGKKGAKIIIPAAAPATPTNSTKNDDSAPTEHVDRGIATNETQVEVGID
notes: also called ISG65 Y70A
Q: How did the koff2 [6] turn out when B5 was run?
A: 0.58 s⁻¹

Q: And the “C3d binding (%)” value [7]?
A: 36%

Q: And the koff [27]?
A: 0.14 s⁻¹

Q: What about the Kd [28] of the same molecule?
A: 78.2 nM

Q: What about the kon [29] of the same molecule?
A: 118000 M⁻¹ s⁻¹
